Assay [1] addresses GoxA precursor protein lacking CTQ (Marinomonas mediterranea). Nature of the assay: SEC.
Assay [2] has as its target active GoxA with mature CTQ (Marinomonas mediterranea). The assay can be described thus: SEC. On the technique in general: SEC sorts molecules by how far they enter the pores of the column.

What is called stoichiometry N is the number of molecules, sites or subunits per partner or assembly.

As for GoxB (enzyme), the stoichiometry N (GoxB per GoxA precursor) in assay [1] amounted to 1. For active GoxA with mature CTQ (enzyme), the stoichiometry N in assay [2] was 2.

The record behind these values is paper PMC5076370.
